Measurements taken from patent US20080227704A1 (published 2008).
Positions count from the first letter of the chain named.

T1: recombinant purified mouse CXCL13 (mouse, UniProt O55038 22-109, biotinylated in the ELISA of Example 1.1.A.1 (sites not given); unlabelled in Biacore)
T1 construct: Bought recombinant protein (R&D Systems); also called murine CXCL13; mCXCL13
T1 sequence: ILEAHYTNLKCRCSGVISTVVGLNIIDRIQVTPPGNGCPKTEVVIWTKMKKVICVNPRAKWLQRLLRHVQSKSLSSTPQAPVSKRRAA

B1: XW25-5D11-4F3-3D11 (antibody, V domains shown)
VH: EVQVQQSGAELVRPGSSVKMSCKTSGYTFTNYGIIWVKQRPGQGLEWIGYIYIGKGYTEYNEKFKGKATLTSDTSSSTVYMQLSSLTSEDSAIYFCARGAHYYGNAMDYWDQGTSVTVSS
VL: DIQMTQTTSSLSASLGDRVTISCRSSQDISNFLNWYQQRPDGTVKLLIYYTSRLHSGVPSRFSGSGSGTDYSLTISNLEQEDIATYFCQQGDTLPWTFGGGTKLEIKR
notes: Mouse anti-mouse CXCL13 monoclonal antibody purified from hybridoma
B2: XW25-2C4-4H8 (antibody, V domains shown)
VH: QVQLQQPGTELVKPGASVKLSCKASGYNFATYWMHWVKQRPGQGLEWIGNINPSDGGTNFNEKFNNKATLTVDKSSSTAYMQLSSLTSEDSAVYYCAKWGGHYVLYWYFDVWGTGTTVTVSS
VL: DIVLTQSPATLSVTPGDSVSLSCRASQSISSNLHWYQQKSHESPRLLITYASQSISGIPSRFSGSGSGTDFTLSINSVESEDVGVYFCQQSDSWPLTFGAGTKLELKR
notes: as for B1
B3: XW25-3B5-3F4 (antibody, V domains shown)
VH: B2 VH with A16T, N28T, A30T, T31S, T58I, N59K, F60Y, N65K, N66S, Q82E
VL: B2 VL with S31N, T49N, S80T, V83F, V85M, D92N
notes: Mouse anti-mouse CXCL13 monoclonal antibody from hybridoma
B4: XW25-6A2-2F10 (antibody, V domains shown)
VH: B2 VH with M34V, N59S, F60Y, N65S, N66K, Q82E, Y108S
VL: B2 VL with S31N, K39R, L47I, Y50H, A51V, T72I, L73F, V83F, D92N
notes: as for B1
B5: XW25-9C10-4B11 (antibody, V domains shown)
VH: B2 VH with N66S
VL: B2 VL
notes: as for B3
B6: XW25-8H6-4F9 (antibody, V domains shown)
VH: B2 VH with F60Y
VL: B2 VL with S30N, S31N, K39E, V83F, D92N
notes: as for B3
B7: XW25-4F2-5D2 (antibody, V domains shown)
VH: B2 VH with A30P
VL: B2 VL with S31N
notes: as for B3
B8: XW25-7C7-5E5 (antibody, V domains shown)
VH: B2 VH with Q82H
VL: B2 VL with S28N, S30N, S31N, A51T
notes: as for B3

What follows are binders tested against T1, recombinant purified mouse CXCL13 (assay: ELISA, antibody captured by goat anti-mouse IgG Fc, biotinylated mouse CXCL13 detected with streptavidin-HRP).
Procedure: ELISA plates (Corning Costar, Acton, Mass.) were coated with 50 μL/well of 5 μg/ml goat anti-mouse IgG Fc specific (Pierce # 31170, Rockford, Ill.) in Phosphate Buffered Saline (PBS) overnight at 4 degrees Celsius. Plates were washed once with PBS containing 0.05% Tween-20. Plates were blocked by addition of 200 μL/well blocking solution diluted to 2% in PBS (BioRad #170-6404, Hercules, Calif.) for 1 hour at room temperature. Plates were washed once after blocking with PBS containing 0.05% Tween-20.
Fifty microliters per well of mouse sera or hybridoma supernatants diluted in PBS containing 0.1% Bovine Serum Albumin (BSA) (Sigma, St. Louis, Mo.) was added to the ELISA plate prepared as described above and incubated for 1 hour at room temperature. Wells were washed three times with PBS containing 0.05% Tween-20. Fifty microliters of biotinylated recombinant purified mouse CXCL13 diluted to 100 ng/mL in PBS containing 0.1% BSA was added to each well and incubated for 1 hour at room temperature. Plates were washed 3 times with PBS containing 0.05% Tween-20. Streptavidin HRP (Pierce # 21126, Rockland, Ill.) was diluted 1:20000 in PBS containing 0.1% BSA; 50 μL/well was added and the plates incubated for 1 hour at room temperature. Plates were washed 3 times with PBS containing 0.05% Tween-20. Fifty microliters of TMB solution (Sigma # T0440, St. Louis, Mo.) was added to each well and incubated for 10 minutes at room temperature. The reaction was stopped by addition of 1N sulphuric acid. Plates were read spectrophotmetrically at a wavelength of 450 nm.

EC50 [nM]	Binder
0.03	B1
0.02	B2
0.04	B3
0.02	B4
0.01	B5
0.03	B6
0.02	B7
0.02	B8

What follows are binders tested against T1, recombinant purified mouse CXCL13 (assay: SPR (Biacore), antibody captured by goat anti-mouse IgG Fc, mouse CXCL13 injected at 0.78-50 nM, 25 C).
Procedure: Binding of antibodies to recombinant purified mouse CXCL13 were determined by surface plasmon resonance-based measurements with a Biacore® 2000 and 3000 instruments (Biacore® AB, Uppsala, Sweden) using running HBS-EP (10 mM HEPES pH 7.4, 150 mM NaCl, 3 mM EDTA, and 0.015% surfactant P20) at 25° C. Experimental data from all kinetic rate determinations of the antibody-antigen reaction were analyzed using Biaevaluation software version 4.0.1.
Mouse Anti Mouse CXCL13 antibodies to be captured as a ligand on the carboxymethyl dextran matrix were diluted in HBS-EP with 0.015% P20 at a concentration of 5-μg/mL. 50-100 μL aliquots were injected over the covalently coupled goat anti-mouse IgG Fc polyclonal antibody biosensor matrices at a flow rate of 25-50 μL/min. The net difference in the baseline signal and the signal after the completion of antibody injection was taken to represent the amount of bound Mouse Anti Mouse CXL13 antibody. Biosensor matrices were typically regenerated with subsequent 25 μL injections of 10 mM Glycine (pH 1.5) before the injection of the next sample. Glycine treatment disrupts the association of non-covalently bound proteins thus Anti CXCL13 antibody-mouse CXCL13 complex dissociates and washes off. The anti-mouse IgG antibody immobilized surfaces were completely regenerated. Aliquots of mouse CXCL13 antigen were injected at a flow rate of 25-50 μL/min over Anti CXCL13 purified monoclonal antibodies captured on the biosensor chips. The concentrations of mouse CXCL13 was ranging between 0.78-50 nM. HBS-EP with 0.015% P20 was flowed through each flow cell in between various cycles of antigens and also immediately before and after the end of kinetic analysis. The signal stabilized 120-180 seconds after the completion of the injection cycle. The net difference in signal between the baseline and the point corresponding to approximately 30 seconds after the completion of antigen injections was taken to represent the amount of antigen bound. The response was measured in resonance units (RU) representing the mass of bound CXCL13 antigen. CXCL13 antigen was also simultaneously injected over the goat anti mouse IgG Fc or goat IgG reference and reaction CM4 surface to record any nonspecific binding background.

kon [M⁻¹ s⁻¹]	Kd [nM]	koff [s⁻¹]	Binder
1e+06			B1
2.7e+06	0.013	3.6e-05	B2
1.6e+06	0.002	2.7e-06	B4

Each binder was assayed against T1, recombinant purified mouse CXCL13 (assay: cell-based or functional assay).

Average Kb (nM) Chemotaxis Assay [nM]	Binder
18.9	B1
23	B2
8.12	B4
16	B7
